For this assay, the target named is Aquifex aeolicus TsaD2B^mut2 tetramer (Aquifex aeolicus | Thermotoga maritima, UniProt O66986 1-335). Put plainly: ITC.
Aquifex aeolicus TsaD2B^mut2 tetramer, sequence (O66986 whole entry, chain 1 of 2): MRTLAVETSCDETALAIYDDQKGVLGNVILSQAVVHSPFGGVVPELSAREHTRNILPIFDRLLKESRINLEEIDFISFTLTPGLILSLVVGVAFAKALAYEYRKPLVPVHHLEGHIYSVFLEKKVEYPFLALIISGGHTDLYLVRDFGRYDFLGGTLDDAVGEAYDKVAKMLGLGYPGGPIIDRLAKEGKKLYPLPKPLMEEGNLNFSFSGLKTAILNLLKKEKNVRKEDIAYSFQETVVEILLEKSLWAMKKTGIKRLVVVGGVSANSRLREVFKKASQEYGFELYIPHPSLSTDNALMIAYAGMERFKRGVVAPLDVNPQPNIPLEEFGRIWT
Aquifex aeolicus TsaD2B^mut2 tetramer, sequence (chain, as listed by the source, chain 2 of 2): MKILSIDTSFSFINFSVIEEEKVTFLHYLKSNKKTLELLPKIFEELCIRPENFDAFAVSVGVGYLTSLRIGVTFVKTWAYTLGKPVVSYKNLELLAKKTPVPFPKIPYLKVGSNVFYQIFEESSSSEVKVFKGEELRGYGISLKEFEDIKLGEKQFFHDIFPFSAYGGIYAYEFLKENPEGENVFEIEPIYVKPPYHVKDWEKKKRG

B1: Aquifex aeolicus TsaE (enzyme)
chain: MELLKEVILESEEDTYKLAEEIAQLLKGSEVICLRGTLGAGKTTFVKALAKALKVKNPSAVRSPTFTLVNEYETDKGKLIHIDLYRVPDFDYSEFIGEGILAVEWEERDKPCDIILEIEILDENKRKVRIYRK
modifications: T. maritima TsaB C-tail WEKKKRG (200-206) grafted after residue 200 of A. aeolicus TsaB (new positions 201-207); C-terminal 6His tag on TsaB omitted; TsaD carries a bound divalent metal (Fe2+ or Zn2+); Cys10 of TsaD seen oxidised (CSO) in the crystal; ITC with TsaE done with AMPPNP/Mg2+
Usually Kd stands for the constant that tells how readily two partners part at equilibrium. Molecule B1 registered a dissociation constant (Kd) of 2870 nM.

For the origin of these results see publication PMC11648230 (2024).
